PMC8003079, “Virus-Like Particles Produced Using the Brome Mosaic Virus Recombinant Capsid Protein Expressed in a Bacterial System” (International Journal of Molecular Sciences, 2021)

Tests used:
[1] = biological target: the molecule itself; assay: MST; labelled rCP (RED-NHS 647, 50 nM) titrated with unlabelled rCP (from 15 uM); 50 mM Tris pH 7.5, 5 mM MgCl2, 150 mM NaCl; step of self-association not stated
[2] = biological target: the molecule itself; assay: MST; labelled rCP (RED-NHS 647, 50 nM) titrated with unlabelled rCP (from 15 uM); 50 mM Tris pH 7.5, 5 mM MgCl2, 300 mM NaCl; step of self-association not stated
[3] = biological target: the molecule itself; assay: MST; labelled rCP (RED-NHS 647, 50 nM) titrated with unlabelled rCP (from 15 uM); 50 mM Tris pH 7.5, 5 mM MgCl2, 600 mM NaCl; step of self-association not stated
[4] = biological target: the molecule itself; assay: MST; labelled rCP (RED-NHS 647, 50 nM) titrated with unlabelled rCP (from 15 uM); 50 mM Tris pH 6.8, 5 mM MgCl2, 150 mM NaCl; step of self-association not stated
[5] = biological target: the molecule itself; assay: cross-linking; 5 mM DSS, rCP in MST buffer pH 7.5; 5, 10, 15 and 30 min; SDS-PAGE
[6] = biological target: the molecule itself; assay: MST; labelled rCP (RED-NHS 647, 50 nM) titrated with unlabelled rCP (from 15 uM); 50 mM Tris pH 7.5, 5 mM MgCl2, 1000 mM NaCl; step of self-association not stated
[7] = biological target: the molecule itself; assay: MST; labelled rCP (RED-NHS 647, 50 nM) titrated with unlabelled rCP (from 15 uM); 50 mM Tris pH 8.5, 5 mM MgCl2, 150 mM NaCl; step of self-association not stated
[8] = biological target: the molecule itself; assay: cryo-TEM imaging; empty VLPs assembled without cargo by two-step dialysis; vitrified samples, 120 kV

B1: recombinant brome mosaic virus (BMV) capsid protein (natural protein)
chain: MSTSGTGKMTRAQRRAAARRNRWTARVQPVIVEPLAAGQGKAIKAIAGYSISKWEASSDAITAKATNAMSITLPHELSSEKNKELKVGRVLLWLGLLPSVAGRIKACVAEKQAQAEAAFQVALAVADSSKEVVAAMYTDAFRGATLGDLLNLQIYLYASEAVPAKAVVVHLEVEHVRPTFDDFFTPVYR
notes: brome mosaic virus capsid (coat) protein; In the MST assay one copy was labelled with Monolith NT Protein Labeling Kit RED-NHS 647 and titrated with unlabelled rCP; also called rCP; CP; source: E. coli Rosetta 2(DE3)pLysS, purified (Ni-NTA, TEV digestion, second Ni-NTA); not shown: His tag (inferred from Ni-NTA purification; vector pMCSG48), N-terminal, cleaved
Kd [1]: 35 nM
Kd [2]: 62 nM
Kd [3]: 72 nM
Kd [4]: 6.8 nM
stoichiometry N [5]: 2
Kd [6]: 111 nM
Kd [7]: 175 nM

B2: mutated BMV capsid protein (L123D and F183T) (natural protein, brome mosaic virus)
chain: MSTSGTGKMTRAQRRAAARRNRWTARVQPVIVEPLAAGQGKAIKAIAGYSISKWEASSDAITAKATNAMSITLPHELSSEKNKELKVGRVLLWLGLLPSVAGRIKACVAEKQAQAEAAFQVADAVADSSKEVVAAMYTDAFRGATLGDLLNLQIYLYASEAVPAKAVVVHLEVEHVRPTFDDTFTPVYR
notes: brome mosaic virus capsid (coat) protein with two designed mutations; also called rCP mutant; mutated rCP; source: E. coli Rosetta 2(DE3)pLysS, purified as the wild-type BMV CP (Ni-NTA, TEV digestion, second Ni-NTA); not shown: His tag (inferred from Ni-NTA purification; vector pMCSG48), N-terminal, cleaved
binding result [8]: binds
